Eleven molecules from patent US20130129746A1 (GlaxoSmithKline, published 2013) can be followed below.

In test [1] the target is T1, Rat Serum Albumin (rat, UniProt P02770 25-608).
T1 construct: mature; purified protein on CM5 chips for BIAcore; also called RSA; rat SA
Put plainly: Albumin KD column of the PK table (repeats Table 6).
Target sequence in this assay (P02770 25-608): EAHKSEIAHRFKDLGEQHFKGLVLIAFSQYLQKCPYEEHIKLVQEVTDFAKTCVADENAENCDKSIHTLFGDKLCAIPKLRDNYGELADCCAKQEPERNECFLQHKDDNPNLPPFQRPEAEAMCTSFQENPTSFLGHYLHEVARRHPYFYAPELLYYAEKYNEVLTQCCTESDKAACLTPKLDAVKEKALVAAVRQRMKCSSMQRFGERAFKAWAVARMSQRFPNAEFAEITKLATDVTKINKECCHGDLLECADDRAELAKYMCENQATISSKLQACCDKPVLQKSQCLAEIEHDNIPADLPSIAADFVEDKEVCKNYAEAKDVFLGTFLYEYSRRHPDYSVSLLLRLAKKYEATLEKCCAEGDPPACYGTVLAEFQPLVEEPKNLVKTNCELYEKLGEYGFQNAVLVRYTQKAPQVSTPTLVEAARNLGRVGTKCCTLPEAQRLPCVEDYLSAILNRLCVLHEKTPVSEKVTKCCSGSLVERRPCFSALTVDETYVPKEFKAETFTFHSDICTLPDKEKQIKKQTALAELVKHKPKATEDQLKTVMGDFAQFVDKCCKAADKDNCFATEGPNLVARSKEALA

For test [2], the target named is T2, Cynomolgus monkey Serum Albumin (Cynomolgus monkey, UniProt A2V9Z4 25-608).
T2 construct: mature; purified protein on CM5 chips for BIAcore; also called CSA; cyno SA
The description is as above.

Test [3] addresses T1, Rat Serum Albumin. The test is described as follows: BIAcore SPR. On the technique in general: In SPR one partner is held on a chip, and binding of the other changes the refractive index at the surface.
Target sequence in this assay (P02770 25-608): as above
Method: (§1) Binding to HSA, CSA, MSA and RSA by BIAcore was confirmed using purified protein at 3 concentrations 1 μM, 500 nM and 50 nM.
Test [4] concerns the target T3, mouse serum albumin (mouse, UniProt P07724 25-608).
T3 construct: mature; purified protein on CM5 chips for BIAcore; also called MSA; mouse SA
The test is described as follows: BIAcore SPR.
Method: as §1

In test [5] the target is T4, Human Serum Albumin (human, UniProt P02768 25-609).
T4 construct: mature; purified protein on CM5 chips for BIAcore; also called HSA; human SA
The test is described as follows: BIAcore SPR.
Method: as §1

For test [6], the target named is T2, Cynomolgus monkey Serum Albumin. Put plainly: BIAcore SPR.
Method: as §1
Test [7] has as its target T1, Rat Serum Albumin. Put plainly: BIAcore SPR (Albumin KD column).
The target of test [8] is T3, mouse serum albumin. The test is described as follows: Albumin KD column of the PK table (repeats Table 6).
The target of test [9] is T1, Rat Serum Albumin. The test is described as follows: BIAcore SPR, second independent experiment.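 Note: purified domain antibodies run as analytes at 50 nM, 500 nM and 1 µM over HSA, CSA, MSA and RSA.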
Target sequence in this assay (P02770 25-608): as above
Method: as §1
The target of test [10] is T3, mouse serum albumin. The test is described as follows: BIAcore SPR, second independent experiment.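 Note: purified domain antibodies run as analytes at 50 nM, 500 nM and 1 µM over HSA, CSA, MSA and RSA.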
Method: as §1
Test [11] deals with T4, Human Serum Albumin. Put plainly: BIAcore SPR, second independent experiment.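 Note: purified domain antibodies run as analytes at 50 nM, 500 nM and 1 µM over HSA, CSA, MSA and RSA.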
Method: as §1
The target of test [12] is T2, Cynomolgus monkey Serum Albumin. Put plainly: BIAcore SPR, second independent experiment.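 Note: purified domain antibodies run as analytes at 50 nM, 500 nM and 1 µM over HSA, CSA, MSA and RSA.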
Method: as §1
Test [13] deals with T1, Rat Serum Albumin. Put plainly: BIAcore SPR. The source holds these as a separate data set.
Target sequence in this assay (P02770 25-608): as above
From the text: (§2) MSA antigen was obtained from Sigma (essentially fatty acid free, ˜99% (agarose gel electrophoresis), lyophilized powder Cat. No. A3559) and CSA was purified from Cynomolgus serum albumin using prometic blue resin (Amersham).
Test [14] addresses T3, mouse serum albumin. Put plainly: BIAcore SPR. This is another data set of the same source.
From the text: as §2
Test [15] concerns the target T4, Human Serum Albumin. The test is described as follows: BIAcore SPR. The source holds these as a separate data set.
From the text: as §2
In test [16] the target is T2, Cynomolgus monkey Serum Albumin. The test is described as follows: BIAcore SPR. This is another data set of the same source.
From the text: as §2
Test [17] has as its target T1, Rat Serum Albumin. The test is described as follows: BIAcore SPR, DOM1m-21-23 fusion against unfused AlbudAb.

T2 sequence (A2V9Z4 25-608): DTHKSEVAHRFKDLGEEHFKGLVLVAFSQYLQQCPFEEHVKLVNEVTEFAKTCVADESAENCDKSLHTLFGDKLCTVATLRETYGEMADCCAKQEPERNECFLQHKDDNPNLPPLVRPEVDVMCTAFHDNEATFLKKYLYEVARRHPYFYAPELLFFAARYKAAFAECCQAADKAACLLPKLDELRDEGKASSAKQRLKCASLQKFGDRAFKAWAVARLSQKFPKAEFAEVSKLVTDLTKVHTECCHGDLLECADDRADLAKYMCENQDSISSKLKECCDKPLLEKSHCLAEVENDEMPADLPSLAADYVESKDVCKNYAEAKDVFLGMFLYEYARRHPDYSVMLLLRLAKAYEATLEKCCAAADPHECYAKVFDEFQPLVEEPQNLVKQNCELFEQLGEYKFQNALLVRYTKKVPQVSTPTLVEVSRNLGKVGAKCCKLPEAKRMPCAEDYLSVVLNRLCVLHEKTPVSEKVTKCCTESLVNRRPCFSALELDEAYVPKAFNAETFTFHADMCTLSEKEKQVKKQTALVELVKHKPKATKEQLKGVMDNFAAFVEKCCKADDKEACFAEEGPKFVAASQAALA
T3 sequence (P07724 25-608): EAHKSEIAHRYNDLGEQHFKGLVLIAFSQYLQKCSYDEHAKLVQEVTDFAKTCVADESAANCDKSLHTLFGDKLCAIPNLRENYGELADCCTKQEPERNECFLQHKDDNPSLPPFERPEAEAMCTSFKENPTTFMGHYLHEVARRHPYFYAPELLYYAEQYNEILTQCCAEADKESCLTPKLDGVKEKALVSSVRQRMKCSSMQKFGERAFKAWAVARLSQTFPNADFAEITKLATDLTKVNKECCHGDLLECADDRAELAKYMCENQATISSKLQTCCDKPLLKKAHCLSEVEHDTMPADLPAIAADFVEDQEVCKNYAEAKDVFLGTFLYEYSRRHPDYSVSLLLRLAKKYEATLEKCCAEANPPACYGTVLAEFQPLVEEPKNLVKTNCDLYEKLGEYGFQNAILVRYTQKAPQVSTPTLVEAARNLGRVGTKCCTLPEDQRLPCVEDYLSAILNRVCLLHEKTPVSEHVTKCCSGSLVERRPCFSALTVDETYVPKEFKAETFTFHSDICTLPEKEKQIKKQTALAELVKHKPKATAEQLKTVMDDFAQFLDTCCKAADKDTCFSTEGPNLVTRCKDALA

B1: DOM7h-14-10 (other)
VL: DIQMTQSPSSLSASVGDRVTITCRASQWIGSQLSWYQQKPGKAPKLLIMWRSSLQSGVPSRFSGSGSGTDFTLTISSLQPEDFATYYCAQGLRHPKTFGQGTKVEIKR
notes: Vk dAb (AlbudAb)
What is called Kd is the concentration at which binding is half-saturated. A word on the koff: it is the rate constant with which the complex falls apart. As usually defined, the kon is a measure of how fast the partners come together. For the molecule B1, the Kd is 4 nM with Rat Serum Albumin [1]; 9 nM in test [2]; 4 nM with Rat Serum Albumin [3]; 30 nM with mouse serum albumin [4]; 12 nM with Human Serum Albumin [5]; 9 nM in test [6]. The koff in the test with Rat Serum Albumin [3] was 0.00964 s⁻¹; with mouse serum albumin [4], 0.0341 s⁻¹; with Human Serum Albumin [5] it was 0.0139 s⁻¹; in test [6], 0.0115 s⁻¹. Moreover, the on-rate (kon) with Rat Serum Albumin [3] is 4.57e+06 M⁻¹ s⁻¹; in the test with mouse serum albumin [4], 1.29e+06 M⁻¹ s⁻¹; with Human Serum Albumin [5], 1.5e+06 M⁻¹ s⁻¹; in test [6], 1.6e+06 M⁻¹ s⁻¹.

B2: DOM7h-14-18 (other)
VL: DIQMTQSPSSLSASVGDRVTITCRASQWIGSQLSWYQQKPGKAPKLLIMWRSSLQSGVPSRFSGSGSGTDFTLTISSLQPEDFATYYCAQGLMKPMTFGQGTKVEIKR
notes: Vk dAb (AlbudAb)
For the molecule B2, the Kd in the test with Rat Serum Albumin [1] was found to be 410 nM; with Rat Serum Albumin [3], 410 nM; with mouse serum albumin [4], 65 nM; with Human Serum Albumin [5] it was 280 nM; in test [6], 180 nM. Besides, the koff was 0.228 s⁻¹ in the test with Rat Serum Albumin [3], 0.0924 s⁻¹ with mouse serum albumin [4], 0.0339 s⁻¹ with Human Serum Albumin [5] and 0.105 s⁻¹ in test [6]. Further, the kon with Rat Serum Albumin [3] turned out to be 560000 M⁻¹ s⁻¹; with mouse serum albumin [4] it was 2.28e+06 M⁻¹ s⁻¹; in the test with Human Serum Albumin [5], 189000 M⁻¹ s⁻¹; in [6] it was 630000 M⁻¹ s⁻¹.

B3: DOM7h-14-19 (other)
VL: DIQMTQSPSSLSASVGDRVTISCRASQWIGSQLSWYQQKPGEAPKLLIMWRSSLQSGVPSRFSGSGSGTDFTLTISSLQPEDFATYYCAQGAALPRTFGQGTKVEIKR
notes: Vk dAb (AlbudAb)
B3: the Kd turned out to be 890 nM with Rat Serum Albumin [1]; 890 nM with Rat Serum Albumin [3]; 60 nM with mouse serum albumin [4]; 70 nM in the test with Human Serum Albumin [5]; 225 nM in [6]. Also, the off-rate (koff) is 0.287 s⁻¹ in the test with Rat Serum Albumin [3], 0.0576 s⁻¹ with mouse serum albumin [4], 0.0525 s⁻¹ with Human Serum Albumin [5] and 0.156 s⁻¹ in [6]. The on-rate (kon) with Rat Serum Albumin [3] was 320000 M⁻¹ s⁻¹; with mouse serum albumin [4], 1.16e+06 M⁻¹ s⁻¹; with Human Serum Albumin [5], 826000 M⁻¹ s⁻¹; in test [6] it was 700000 M⁻¹ s⁻¹.

B4: DOM7h14-10/G4SC-NCE fusion (other)
chain: DIQMTQSPSSLSASVGDRVTITCRASQWIGSQLSWYQQKPGKAPKLLIMWRSSLQSGVPSRFSGSGSGTDFTLTISSLQPEDFATYYCAQGLRHPKTFGQGTKVEIKRGGGGSC
modifications: C-terminal Cys of the GGGGSC spacer conjugated by maleimide through a PEG 4 linker to the NCE (small molecule ADAMTS-4 inhibitor)
notes: AlbudAb-drug conjugate; also called DOM7h14-10 NCE-GGGGSC; DOM7h-14-10 GGGGSC
In turn, B4 came in with a dissociation constant Kd with Rat Serum Albumin [7] of 62 nM.

B5: DOM7h-11-12 (other)
VL: DIQMTQSPSSLSASVGDRVTITCRASRPIGTMLSWYQQKPGKAPKLLILFGSRLQSGVPSRFSGSGSGTDFTLTISSLQPEDFATYYCAQAGTHPTTFGQGTKVEIKR
Take B5: the dissociation constant Kd is 200 nM with Rat Serum Albumin [1]; 130 nM in the test with mouse serum albumin [8]; 200 nM with Rat Serum Albumin [3]; 130 nM with mouse serum albumin [4]; 350 nM with Human Serum Albumin [5]; no less than 6000 nM in [6]. Moreover, the off-rate (koff) in the test with Rat Serum Albumin [3] is 0.522 s⁻¹; with mouse serum albumin [4], 0.189 s⁻¹; with Human Serum Albumin [5] it was 0.413 s⁻¹. Moreover, the kon was 2.76e+06 M⁻¹ s⁻¹ with Rat Serum Albumin [3], 1.53e+06 M⁻¹ s⁻¹ with mouse serum albumin [4] and 1.26e+06 M⁻¹ s⁻¹ with Human Serum Albumin [5].

B6: DOM7h-11-19 (other)
VL: DIQMTQSPSSLSASVGDRVTITCRASRPIGTMLSWYQQKPGKAPKLLILFGSRLQSGVPSRFSGSGSGTDFTLTISSLQPEDFATYYCAQTGTHPTTFGQGTKVEIKR
Consider B6, for which the Kd in the test with Rat Serum Albumin [3] was 28 nM; with mouse serum albumin [4], 100 nM; in the test with Human Serum Albumin [5] it was 65 nM; in test [6] it was no less than 10000 nM; in the test with Rat Serum Albumin [9], 17000 nM; with mouse serum albumin [10] it was 18000 nM. Moreover, the dissociation constant Kd with Human Serum Albumin [11] worked out at 38000 nM; in test [12] it was 375000 nM. Besides, the koff with Rat Serum Albumin [3] is 0.091 s⁻¹; with mouse serum albumin [4], 0.037 s⁻¹; in the test with Human Serum Albumin [5] it was 0.11 s⁻¹; in the test with Rat Serum Albumin [9], 0.14 s⁻¹; in the test with mouse serum albumin [10], 0.088 s⁻¹; with Human Serum Albumin [11], 0.209 s⁻¹. Moreover, in test [12], the koff is 0.62 s⁻¹. Also, the kon was found to be 980000 M⁻¹ s⁻¹ in the test with Rat Serum Albumin [3]; 1.4e+06 M⁻¹ s⁻¹ with mouse serum albumin [4]; 1.8e+06 M⁻¹ s⁻¹ with Human Serum Albumin [5]; 8100 M⁻¹ s⁻¹ with Rat Serum Albumin [9]; 4900 M⁻¹ s⁻¹ with mouse serum albumin [10]; 5400 M⁻¹ s⁻¹ with Human Serum Albumin [11]. The molecule further registered a kon in test [12] of 1700 M⁻¹ s⁻¹.

B7: DOM7h-11-18 (other)
VL: DIQMTQSPSSLSASVGDRVTITCRASRPIGTMLSWYQQKPGKAPKLLIWFGSRLQSGVPSRFSGSGSGTDFTLTISSLQPEDFATYHCAQAGTHPTTFGQGTKVEIKR
On to B7, for which the equilibrium dissociation constant (Kd) with Rat Serum Albumin [3] is 80 nM; with mouse serum albumin [4] it was 150 nM; in the test with Human Serum Albumin [5], 36 nM; in test [6], 10000 nM; with Rat Serum Albumin [9] it was 29000 nM; with mouse serum albumin [10] it was 1600 nM. For the same molecule, the values for the Kd (with Human Serum Albumin [11]; in [12]) were 32000 nM and 65000 nM, respectively. Also, the koff in the test with Rat Serum Albumin [3] came out at 0.06 s⁻¹; with mouse serum albumin [4], 0.024 s⁻¹; with Human Serum Albumin [5], 0.051 s⁻¹; in test [6], 1.36 s⁻¹; with Rat Serum Albumin [9], 0.37 s⁻¹; with mouse serum albumin [10], 0.0623 s⁻¹. The koff with Human Serum Albumin [11] amounted to 0.27 s⁻¹; in [12], 0.48 s⁻¹. Besides, the on-rate constant (kon) turned out to be 1.64e+06 M⁻¹ s⁻¹ with Rat Serum Albumin [3]; 440000 M⁻¹ s⁻¹ in the test with mouse serum albumin [4]; 3.4e+06 M⁻¹ s⁻¹ with Human Serum Albumin [5]; 225000 M⁻¹ s⁻¹ in test [6]; 13000 M⁻¹ s⁻¹ with Rat Serum Albumin [9]; 40000 M⁻¹ s⁻¹ in the test with mouse serum albumin [10]. Besides, the results for the kon (in the test with Human Serum Albumin [11]; in [12]) were 8390 M⁻¹ s⁻¹ and 7300 M⁻¹ s⁻¹, respectively.

B8: DOM7h-11-15 (other)
VL: DIQMTQSPSSLSASVGDRVTITCRASRPIGTMLSWYQQKPGKAPKLLILAFSRLQSGVPSRFSGSGSGTDFTLTISSLQPEDFATYYCAQAGTHPTTFGQGTKVEIKR
As to B8, the Kd with Rat Serum Albumin [13] came to 21 nM; with mouse serum albumin [14] it was 10.3 nM; with Human Serum Albumin [15], 1.4 nM; in test [16], 5.3 nM; in the test with Rat Serum Albumin [1], 20 nM; in the test with mouse serum albumin [8], 10 nM. In addition, the equilibrium dissociation constant (Kd) is 3 nM in test [2]; 20 nM with Rat Serum Albumin [3]; 10 nM with mouse serum albumin [4]; 1 nM with Human Serum Albumin [5]; 3 nM in test [6]. Moreover, the off-rate (koff) with Rat Serum Albumin [3] is 0.021 s⁻¹; with mouse serum albumin [4] it was 0.0094 s⁻¹; in the test with Human Serum Albumin [5], 0.00184 s⁻¹; in test [6], 0.00557 s⁻¹. The values for the association rate constant (kon) with Rat Serum Albumin [3], with mouse serum albumin [4] and in the test with Human Serum Albumin [5] were 1.1e+06 M⁻¹ s⁻¹, 1.1e+06 M⁻¹ s⁻¹ and 2e+06 M⁻¹ s⁻¹, respectively.

B9: DOM7h14-10/TVAAPSC fusion (NCE conjugate) (other)
chain: DIQMTQSPSSLSASVGDRVTITCRASQWIGSQLSWYQQKPGKAPKLLIMWRSSLQSGVPSRFSGSGSGTDFTLTISSLQPEDFATYYCAQGLRHPKTFGQGTKVEIKRTVAAPSC
modifications: C-terminal Cys of the TVAAPSC spacer conjugated by maleimide through a PEG 4 linker to the NCE (small molecule ADAMTS-4 inhibitor)
notes: AlbudAb-drug conjugate; also called DOM7h14-10 NCE-TVAAPSC
In the test with Rat Serum Albumin [7], B9 showed a Kd of 35 nM.

B10: DOM7h-11-12/DOM1m-21-23 fusion DMS number 5516 (other)
chain: EVQLLESGGGLVQPGGSLRLSCAASGFTFNRYSMGWLRQAPGKGLEWVSRIDSYGRGTYYEDPVKGRFSISRDNSKNTLYLQMNSLRAEDTAVYYCAKISQFGSNAFDYWGQGTQVTVSSASTSGPSDIQMTQSPSSLSASVGDRVTITCRASRPIGTMLSWYQQKPGKAPKLLILFGSRLQSGVPSRFSGSGSGTDFTLTISSLQPEDFATYYCAQAGTHPTTFGQGTKVEIKR
notes: also called DMS5516
Take B10: the “fold decrease in affinity to RSA compared to the unfused AlbudAb” value in the test with Rat Serum Albumin [17] came to 2 fold.

B11: DOM7h-11-15/DOM1m-21-23 fusion DMS number 5517 (other)
chain: EVQLLESGGGLVQPGGSLRLSCAASGFTFNRYSMGWLRQAPGKGLEWVSRIDSYGRGTYYEDPVKGRFSISRDNSKNTLYLQMNSLRAEDTAVYYCAKISQFGSNAFDYWGQGTQVTVSSASTSGPSDIQMTQSPSSLSASVGDRVTITCRASRPIGTMLSWYQQKPGKAPKLLILAFSRLQSGVPSRFSGSGSGTDFTLTISSLQPEDFATYYCAQAGTHPTTFGQGTKVEIKR
notes: also called DMS5517
As to B11, in the test with Rat Serum Albumin [17], the “fold decrease in affinity to RSA compared to the unfused AlbudAb” value is 2 fold.
